Data reported in patent publication US20240368303A1 (ZHEJIANG SHIMAI PHARMACEUTICAL, published 2024).

B1: 1A1 Fab (Fab, V domains shown)
VH: EVQLVQSGAEVKKPGASVKVSCKASGYTFTSYGISWVRQAPGQGLEWMGWISAYNGNTNYAQKLQGRVTMTTDTSTSTAYMELRSLRSDDTAVYYCARAGTPTQILRYFDWLSQPFDYWGQGTLVTVSS
VL: EIVLTQSPLSLPVTLGQPASISCRSSQSLVYSDGNTYLNWFHQRPGQSPRRLIYKVSNRDSGVPERFSGSGSGTDFTLKISRVEAEDVGVYYCMQSTHWPLTFGGGTKVEIK
notes: Human Fab from a phage library, kappa light chain, hexahistidine-tagged, made in E. coli HB2151, detected with anti-FLAG antibody; also called Fab clone 1A1; anti-GPC3 1A1 Fab
B2: anti-GPC3 1A1 mAb (antibody, human IgG1, kappa, V domains shown)
VH: B1 VH
VL: EIVLTQSPLSLPVTLGQPASISCRSSQSLVYSDGNTYLNWFHQRPGQSPRRLIYKVSNRDSGVPERFSGSGSGTDFTLKISRVEAEDVGVYYCMQSTHWPLTFGGGTKVEIKR
notes: Intact human IgG1 kappa, about 150 kDa on non-reducing SDS-PAGE
B3: 6A4 Fab (Fab, V domains shown)
VH: EVQLVQSGAEVKKPGASVKVSCKASGYTFTSYAMHWVRQAPGQRLEWMGWINAGNGNTKYSQKFQGRVTITRDTSTSTAYMELRSLRSDDTAVYYCARDPSHWGQGTLVTVSS
VL: not shown
notes: Human Fab from a phage library, kappa light chain, hexahistidine-tagged, made in E. coli HB2151, detected with anti-FLAG antibody; also called Fab clone 6A4
B4: anti-GPC3 6A4 mAb (antibody, V domains shown)
VH: B3 VH
VL: not shown
notes: Intact human IgG1 kappa

Assays:
[1] = molecular target: T1, recombinant human GPC3 (full-length extracellular domain) (human, UniProt P51654 25-559); assay: ELISA, GPC3 coated at 50 ng per well, anti-FLAG-HRP detection
T1 construct: extracellular domain; Bought protein coated on ELISA plates; also called human GPC3 protein
Procedure: The hexahistidine-tagged 1A1 Fab and 6A4 Fab were expressed in E. coli strain HB2151 and purified from the soluble fraction of periplasm by using the Ni-NTA resin. Then ELISA was performed by using standard protocols to measure binding affinity to recombinant human GPC3 (full-length extracellular domain). Briefly, the recombinant human GPC3 (ACROBiosystems) was coated on Corning EIA/RIA high-binding 96-well plates (Corning Inc.) at 50 ng per well overnight at 4° C. and blocked with 3% nonfat milk in PBS (pH7.4). Fivefold serially diluted antibodies were added and incubated at room temperature for 2 h. The plates were washed with PBS containing 0.05% Tween 20. Bound antibodies were detected by HRP-conjugated anti-FLAG tag antibody (Sino Biological). The assay was developed at room temperature with TMB substrate (Solarbio) and OD value was measured at 450 nm with a microplate reader.

[2] = molecular target: T1, recombinant human GPC3 (full-length …); assay: ELISA, GPC3 coated, biotinylated antibody, streptavidin-HRP detection
Procedure: (§1) ELISA was performed according to standard protocols, to determine binding affinity of anti-GPC3 1A1 mAb to recombinant GPC3 from human, cynomolgus, and mouse and anti-GPC3 6A4 mAb to recombinant human GPC3. Briefly, recombinant GPC3 (AcroBiosystems) was coated on Corning EIA/RIA high-binding 96-well plates (Corning Inc.) at 50 ng per well overnight at 4° C. and blocked with 3% nonfat milk in PBS (pH7.4). Fivefold serially diluted biotinylated antibodies were added and incubated at room temperature for 2 h. The plates were washed with PBS containing 0.05% Tween 20. Bound antibodies were detected by HRP-conjugated streptavidin (Sino Biological). The assay was developed at room temperature with TMB substrate (Solarbio) and monitored at 450 nm with a microplate reader. The half-maximal binding (EC₅₀) was calculated by fitting the data to the Langmuir adsorption isotherm.

[3] = molecular target: T2, recombinant cynomolgus GPC3 (cynomolgus, UniProt A0A2K5VK50 24-558); assay: as above
T2 construct: Bought protein; also called cynomolgus GPC3 protein
Procedure: as §1

recombinant mouse GPC3 = molecular target: T3, recombinant mouse GPC3 (mouse, UniProt Q8CFZ4 25-558, limits assumed); assay: as above
T3 construct: Bought protein; also called mouse GPC3 protein
Procedure: as §1

T3 sequence (Q8CFZ4 25-558 limits assumed): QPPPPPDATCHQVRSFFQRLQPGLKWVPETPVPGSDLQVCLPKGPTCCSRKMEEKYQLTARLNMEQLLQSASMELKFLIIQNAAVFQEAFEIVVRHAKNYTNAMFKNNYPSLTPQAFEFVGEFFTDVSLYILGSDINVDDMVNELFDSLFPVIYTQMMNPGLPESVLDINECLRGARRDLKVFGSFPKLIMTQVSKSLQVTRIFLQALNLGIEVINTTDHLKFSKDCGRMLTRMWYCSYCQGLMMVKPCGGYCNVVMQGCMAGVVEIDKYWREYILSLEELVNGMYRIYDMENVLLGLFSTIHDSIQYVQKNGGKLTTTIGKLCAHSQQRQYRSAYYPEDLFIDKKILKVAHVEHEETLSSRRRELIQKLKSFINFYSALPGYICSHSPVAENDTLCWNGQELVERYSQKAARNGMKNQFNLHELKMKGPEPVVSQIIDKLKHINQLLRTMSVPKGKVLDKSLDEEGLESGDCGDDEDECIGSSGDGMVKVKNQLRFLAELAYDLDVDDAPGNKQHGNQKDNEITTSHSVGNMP

Binder | EC50 [1] [nM] | EC50 [2] [nM] | EC50 [3] [nM] | EC50 (recombinant mouse GPC3) [nM]
B1 | ~190 |  |  | 
B2 |  | 0.6 | 0.58 | 1.12
B3 | ~234 |  |  | 
B4 |  | 4.5 |  | 
